Drawing on publication PMC7600800, this text covers other: number of unique peptides (unique peptides) for two molecules.

Assay in all cases: anti-HA immunoprecipitation, SDS-PAGE and mass spectrometry
Assay [1] concerns the target dnaJ homolog subfamily A member 1. To be noted: lysates of transfected HEK293 cells; parent: 7.
Assay [2] concerns the target lamin-B1 isoform 1. The note with it: lysates of transfected HEK293 cells; parent: -.
In assay [3] the target is ruvB-like 1. To be noted: lysates of transfected HEK293 cells; parent: 3.
The target in assay [4] is heat shock-related 70 kDa protein 2. To be noted: lysates of transfected HEK293 cells; parent: 14.
In assay [5] the target is 78 kDa glucose-regulated protein precursor. The note with it: lysates of transfected HEK293 cells; parent: 39.
In assay [6] the target is regulator of chromosome condensation isoform c. To be noted: lysates of transfected HEK293 cells; parent: -.
Assay [7] deals with heat shock 70 kDa protein 1-like. The note with it: lysates of transfected HEK293 cells; parent: 13.
For assay [8], the target named is T1, 14-3-3, endogenous, P63104.
T1 chain: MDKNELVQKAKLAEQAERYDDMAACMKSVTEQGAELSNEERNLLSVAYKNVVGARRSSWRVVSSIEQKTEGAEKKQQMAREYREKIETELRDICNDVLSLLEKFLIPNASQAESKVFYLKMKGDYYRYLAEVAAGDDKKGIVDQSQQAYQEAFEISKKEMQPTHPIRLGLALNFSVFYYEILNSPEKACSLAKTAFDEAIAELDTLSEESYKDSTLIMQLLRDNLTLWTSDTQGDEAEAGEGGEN
To be noted: chain shown with the change; lysates of transfected HEK293 cells; parent: -.

Turning to “HA-tagged p27 wild type (from UniProt P46527) R30A; N31A; L32A”, the other: number of unique peptides (unique peptides) in assay [1] was 4; in assay [2], 3; in assay [3], 2; in assay [4], 6; in assay [5], 34; in assay [6] it was 2. Moreover, the other: number of unique peptides (unique peptides) in assay [7] was 12.

B1: HA-tagged p27 wild type, P46527 R30A; N31A; L32A (protein)
chain: MSNVRVSNGSPSLERMDARQAEHPKPSACAAAFGPVDHEELTRDLEKHCRDMEEASQRKWNFDFQNHKPLEGKYEWQEVEKGSLPEFYYRPPRPPKGACKVPAQESQDVSGSRPAAPLIGAPANSEDTHLVDPKTDPSDSQTGLAEQCAGIRKRPATDDSSTQNKRANRTEENVSDGSPNAGSVEQTPKKPGLRRRQT
On to B1, for which, in assay [8], the other: number of unique peptides (unique peptides) was determined as 4.
